{"source": "patent US20130150297A1", "about": "(KAI PHARMACEUTICALS, published 2013)", "binders": {"B1": {"name": "Ac-CaRrRaR-NH2 (peptide)", "peptide": "CXRXRXR", "modifications": "N-terminal acetyl; C-terminal amide; L-Cys 1, D-Ala 2, L-Arg 3, D-Arg 4, L-Arg 5, D-Ala 6, L-Arg 7"}, "B2": {"name": "Ac-c(acetyl)rrrrrr-NH2 (peptide)", "peptide": "XXXXXXX", "modifications": "N-terminal acetyl; C-terminal amide; all residues D-amino acids; acetyl attached to the side chain of D-Cys 1"}, "B3": {"name": "Ac-c(C)arrrar-NH2 (peptide)", "peptide": "XXXXXXX", "modifications": "N-terminal acetyl; C-terminal amide; all seven residues D-amino acids; D-Cys 1 linked by a disulfide bond to an L-Cys residue"}, "B4": {"name": "Ac-dHcy rrrrrr-NH2 (peptide)", "peptide": "XXXXXXX", "modifications": "N-terminal acetyl; C-terminal amide; residue 1 is D-homocysteine (dHcy); residues 2-7 D-Arg"}, "B5": {"name": "Ac-c(GS)rrrrrr-NH2 (peptide)", "peptide": "XXXXXXX", "modifications": "N-terminal acetyl; C-terminal amide; all residues D-amino acids; oxidized glutathione (GS) attached to the side chain of D-Cys 1"}, "B6": {"name": "Ac-c(Ac-C)arrrar-NH2 (peptide)", "peptide": "XXXXXXX", "modifications": "not fully specified; N-terminal acetyl; C-terminal amide; all seven residues D-amino acids; N-acetyl-L-Cys attached to the side chain of D-Cys 1"}, "B7": {"name": "Ac-c(PEG5-C)rrrrrr-NH2 (peptide)", "peptide": "XXXXXXX", "modifications": "N-terminal acetyl; C-terminal amide; all residues D-amino acids; L-Cys carrying a 5 kDa polyethylene glycol (PEG5-C) attached to the side chain of D-Cys 1"}, "B8": {"name": "Ac-bAla-crrrrrr-NH2 (peptide)", "peptide": "XXXXXXXX", "modifications": "N-terminal acetylated beta-alanine; C-terminal amide; Cys and Arg residues are D-amino acids"}, "B9": {"name": "Ac-c(Benzoyl)rrrrrr-NH2 (peptide)", "peptide": "XXXXXXX", "modifications": "N-terminal acetyl; C-terminal amide; all residues D-amino acids; benzoyl attached to the side chain of D-Cys 1"}, "B10": {"name": "Ac-C(C)arrrar-NH2 (peptide)", "peptide": "XXXXXXX", "modifications": "not fully specified; N-terminal acetyl; C-terminal amide; L-Cys 1 linked by a disulfide bond to an L-Cys residue; residues 2-7 D-amino acids"}, "B11": {"name": "Ac-caaarrrrrr-NH2 (peptide)", "peptide": "Ac-[dC][dA][dA][dA][dR][dR][dR][dR][dR][dR]-NH2", "SMILES": "CC(=O)N[C@H](CS)C(=O)N[C@H](C)C(=O)N[C@H](C)C(=O)N[C@H](C)C(=O)N[C@H](CCCNC(=N)N)C(=O)N[C@H](CCCNC(=N)N)C(=O)N[C@H](CCCNC(=N)N)C(=O)N[C@H](CCCNC(=N)N)C(=O)N[C@H](CCCNC(=N)N)C(=O)N[C@H](CCCNC(=N)N)C(N)=O"}, "B12": {"name": "c(C)arrrar-NH2 (peptide)", "peptide": "XXXXXXX", "modifications": "no N-terminal cap; C-terminal amide; all seven residues D-amino acids; D-Cys 1 linked to an L-Cys residue"}, "B13": {"name": "Ac-cygrkkrrqrrr-NH2 (peptide)", "peptide": "XXXXXXXXXXXX", "modifications": "N-terminal acetyl; C-terminal amide; printed in lower case (D-amino acids; glycine is achiral)"}, "B14": {"name": "(SEQ ID NO: 45) (SEQ ID NO: 47) conjugate, structure given only as drawing CHEM-US-00001 (peptide)", "peptide 1": "CHDAPIGYD", "peptide 2": "CYGRKKRRQRRR", "modifications": "cysteine pairing not given here; also: further groups not given here"}, "B15": {"name": "Ac-c(Mpa)arrrar-NH2 (peptide)", "peptide": "XXXXXXX", "modifications": "N-terminal acetyl; C-terminal amide; all residues D-amino acids; mercaptopropionic acid (Mpa) attached to the side chain of D-Cys 1"}, "B16": {"name": "(SEQ ID NO: 46) (SEQ ID NO: 47) conjugate, structure given only as drawing CHEM-US-00002 (peptide)", "peptide 1": "CPDYHDAGI", "peptide 2": "CYGRKKRRQRRR", "modifications": "cysteine pairing not given here; also: further groups not given here"}, "B17": {"name": "Ac-bAla-c(C)arrrar-NH2 (peptide)", "peptide": "XXXXXXXX", "modifications": "not fully specified; N-terminal acetylated beta-alanine; C-terminal amide; c, a, r residues D-amino acids; D-Cys linked to an L-Cys residue"}}, "note": "Square brackets hold non-standard residues; d marks the D form. Ends that are not written are not given here.", "data": [{"target": "T1, human calcium-sensing receptor (CaSR) (human, UniProt P41180 20-1078)", "T1 sequence (looked up)": "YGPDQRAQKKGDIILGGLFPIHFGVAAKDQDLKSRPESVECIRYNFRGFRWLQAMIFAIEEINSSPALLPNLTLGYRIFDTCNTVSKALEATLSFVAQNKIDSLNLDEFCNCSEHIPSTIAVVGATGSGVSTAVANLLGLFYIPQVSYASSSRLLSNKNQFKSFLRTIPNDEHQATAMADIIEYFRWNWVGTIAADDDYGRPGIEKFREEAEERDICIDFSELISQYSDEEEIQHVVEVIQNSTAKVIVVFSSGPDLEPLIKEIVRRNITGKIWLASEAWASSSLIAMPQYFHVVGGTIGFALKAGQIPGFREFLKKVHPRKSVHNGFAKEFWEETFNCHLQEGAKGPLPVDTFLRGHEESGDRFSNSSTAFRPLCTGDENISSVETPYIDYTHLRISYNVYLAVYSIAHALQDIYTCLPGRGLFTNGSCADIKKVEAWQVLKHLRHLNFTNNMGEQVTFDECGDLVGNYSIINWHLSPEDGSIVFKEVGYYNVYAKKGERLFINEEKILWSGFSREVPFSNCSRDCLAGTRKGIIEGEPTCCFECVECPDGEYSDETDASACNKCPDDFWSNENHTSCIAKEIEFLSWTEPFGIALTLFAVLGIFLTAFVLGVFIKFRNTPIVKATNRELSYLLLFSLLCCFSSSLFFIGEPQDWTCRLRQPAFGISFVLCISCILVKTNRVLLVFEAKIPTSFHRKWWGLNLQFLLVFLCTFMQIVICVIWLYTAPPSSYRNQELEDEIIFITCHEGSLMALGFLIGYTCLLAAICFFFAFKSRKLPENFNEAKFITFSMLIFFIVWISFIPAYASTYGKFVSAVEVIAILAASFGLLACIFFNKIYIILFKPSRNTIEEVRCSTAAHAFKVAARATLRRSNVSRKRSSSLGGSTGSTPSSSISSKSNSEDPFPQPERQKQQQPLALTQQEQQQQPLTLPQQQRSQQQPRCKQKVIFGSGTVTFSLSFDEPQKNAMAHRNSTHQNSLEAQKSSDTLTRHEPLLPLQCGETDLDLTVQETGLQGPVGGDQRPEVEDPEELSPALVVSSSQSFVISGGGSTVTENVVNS", "assay": "cell-based or functional assay", "units": {"difference in potency relative to Ac-carrrar-NH2 (SEQ ID NO:26)": "fold", "reduction in potency relative to Ac-carrrar-NH2 (SEQ ID NO:26)": "fold", "shift in potency in HEK-293 in vitro cell assay (4 versus 5 arginine subunits)": "fold", "decrease in potency relative to Ac-carrrar-NH2 (SEQ ID NO:26)": "fold"}, "values": [{"binder": "B1", "difference in potency relative to Ac-carrrar-NH2 (SEQ ID NO:26)": "< 4"}, {"binder": "XGXXXGX (N-terminal acetyl; C-terminal amide; D-amino acids except Gly 2 and Gly 6)", "note": "[Ac-cGrrrGr-NH2]", "reduction in potency relative to Ac-carrrar-NH2 (SEQ ID NO:26)": "< 8"}, {"binder": "XXXXX (N-terminal acetyl; C-terminal amide; all residues D-amino acids)", "note": "[Ac-crrrr-NH2]", "shift in potency in HEK-293 in vitro cell assay (4 versus 5 arginine subunits)": "> 10"}, {"binder": "XAXXXAX (N-terminal acetyl; C-terminal amide; D-amino acids except L-Ala 2 and L-Ala 6)", "note": "[Ac-cArrrAr-NH2]", "decrease in potency relative to Ac-carrrar-NH2 (SEQ ID NO:26)": "> 600"}]}, {"target": "T1, human calcium-sensing receptor (CaSR)", "assay": "cell-based or functional assay", "remark": "another data set of the same source", "units": {"EC50 (µM), CaSR in vitro assay (IP1 production)": "µM"}, "values": [{"binder": "B1", "EC50 (µM), CaSR in vitro assay (IP1 production)": 5.6}, {"binder": "B2", "EC50 (µM), CaSR in vitro assay (IP1 production)": 4.1}, {"binder": "XXXXX (N-terminal acetyl; C-terminal amide; all residues D-amino acids)", "note": "[Ac-crrrr-NH2]", "EC50 (µM), CaSR in vitro assay (IP1 production)": 16}, {"binder": "B3", "EC50 (µM), CaSR in vitro assay (IP1 production)": 10}, {"binder": "B4", "EC50 (µM), CaSR in vitro assay (IP1 production)": 2}, {"binder": "B5", "EC50 (µM), CaSR in vitro assay (IP1 production)": 7.8}, {"binder": "XAXXXAX (N-terminal acetyl; C-terminal amide; D-amino acids except L-Ala 2 and L-Ala 6)", "note": "[Ac-cArrrAr-NH2]", "EC50 (µM), CaSR in vitro assay (IP1 production)": "> 1000"}, {"binder": "Ac-CARRRAR-NH2", "note": "[Ac-CARRRAR-NH2]", "EC50 (µM), CaSR in vitro assay (IP1 production)": 58}, {"binder": "B6", "EC50 (µM), CaSR in vitro assay (IP1 production)": 21}, {"binder": "XXXXXXX (no N-terminal cap; C-terminal amide; all residues D-amino acids)", "note": "[crrrrrr-NH2]", "EC50 (µM), CaSR in vitro assay (IP1 production)": 1.1}, {"binder": "B7", "EC50 (µM), CaSR in vitro assay (IP1 production)": 0.58}, {"binder": "B8", "EC50 (µM), CaSR in vitro assay (IP1 production)": 1}, {"binder": "Ac-YGRKKRRQRRR-NH2", "note": "[Ac-YGRKKRRQRRR-NH2]", "EC50 (µM), CaSR in vitro assay (IP1 production)": 16}, {"binder": "B9", "EC50 (µM), CaSR in vitro assay (IP1 production)": 3.6}, {"binder": "B10", "EC50 (µM), CaSR in vitro assay (IP1 production)": 2.5}, {"binder": "XXXXXXX (N-terminal acetyl; free C-terminal acid (-OH); all residues D-amino acids)", "note": "[Ac-carrrar-OH]", "EC50 (µM), CaSR in vitro assay (IP1 production)": 31}, {"binder": "B11", "EC50 (µM), CaSR in vitro assay (IP1 production)": 4.6}, {"binder": "B12", "EC50 (µM), CaSR in vitro assay (IP1 production)": 3.1}, {"binder": "B13", "EC50 (µM), CaSR in vitro assay (IP1 production)": 2}, {"binder": "B14", "EC50 (µM), CaSR in vitro assay (IP1 production)": 21}, {"binder": "B15", "EC50 (µM), CaSR in vitro assay (IP1 production)": 21}, {"binder": "B16", "EC50 (µM), CaSR in vitro assay (IP1 production)": 21}, {"binder": "B17", "EC50 (µM), CaSR in vitro assay (IP1 production)": 2.6}, {"binder": "Ac-CYGRKKRRQRRR-NH2", "note": "[Ac-CYGRKKRRQRRR-NH2]", "EC50 (µM), CaSR in vitro assay (IP1 production)": 4.5}]}]}
